Reference: patent publication US10294520B2, “Nicotiana nucleic acid molecules and uses thereof” (U.S. Smokeless Tobacco Company LLC, priority 2004, dated 2019)

Legend:
[1] = biological target: T1, tobacco nicotine demethylase (D121-AA8) (Nicotiana tabacum, UniProt Q38Q87); experiment: Nicotine demethylase activity assay with yeast microsomal preparations; settings: for nornicotine produced from the demethylation of nicotine (HPLC and LSC): microsomal samples from yeast cells expressing the p450
T1 sequence (Q38Q87 with tags, fused parts or gaps): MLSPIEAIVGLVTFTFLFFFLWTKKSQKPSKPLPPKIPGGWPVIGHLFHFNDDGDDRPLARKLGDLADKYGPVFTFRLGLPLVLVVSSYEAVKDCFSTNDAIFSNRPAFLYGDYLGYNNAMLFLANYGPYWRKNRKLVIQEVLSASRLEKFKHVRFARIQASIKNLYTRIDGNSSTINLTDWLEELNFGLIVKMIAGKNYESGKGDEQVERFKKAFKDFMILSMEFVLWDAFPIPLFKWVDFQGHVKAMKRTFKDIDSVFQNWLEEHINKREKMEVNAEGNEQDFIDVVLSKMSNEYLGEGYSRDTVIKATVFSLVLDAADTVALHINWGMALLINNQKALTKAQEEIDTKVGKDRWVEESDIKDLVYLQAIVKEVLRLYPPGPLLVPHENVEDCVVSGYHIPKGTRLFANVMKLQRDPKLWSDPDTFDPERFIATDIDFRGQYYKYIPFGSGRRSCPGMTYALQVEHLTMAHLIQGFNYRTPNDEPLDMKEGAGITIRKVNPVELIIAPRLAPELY
Method: After induction by galactose for 20 hours, yeast cells were collected by centrifugation and washed twice with TES-M buffer (50 mM Tris-HCl, pH 7.5, 1 mM EDTA, 0.6 M sorbitol, 10 mM 2-mercaptoethanol). The pellet was resuspended in extraction buffer (50 mM Tris-HCl, pH 7.5, 1 mM EDTA, 0.6 M sorbitol, 2 mM 2-mercaptoethanol, 1% bovine serum album, Protease Inhibitor Cocktail (Roche) at 1 tablet/50 ml). Cells were then broken with glass beads (0.5 mm in diameter, Sigma) and the cell extract was centrifuged for 20 min at 20,000×g to remove cellular debris. The supernatant was subjected to ultracentrifugation at 100,000×g for 60 min and the resultant pellet contained the microsomal fraction. The microsomal fraction was suspended in TEG-M buffer (50 mM Tris-HCl, pH 7.5, 1 mM EDTA, 20% glycerol and 1.5 mM 2-mercaptoethanol) at protein concentration of 1 mg/mL. Microsomal preparations were stored in a liquid nitrogen freezer until use.
Nicotine demethylase activity assays with yeast microsomal preparations were performed. […] Chlorpromazine (CPZ) and oxidized cytochrome c (cyt. C), both P450 inhibitors, were purchased from Sigma. […] NADPH was omitted for control incubation. The routine enzyme assay included microsomal proteins (around 1 mglrnl), 6 mM NADPH, and 55 μM ^14C labeled nicotine. […] C, when used, was 1 mM and 100 μM, respectively. The reaction was carried at 25° C. for 1 hour and was stopped with the addition of 300 μM methanol to each 25 μl reaction mixture. After centrifugation, 20 μl of the methanol extract was separated with a reverse-phase High Performance Liquid Chromatography (HPLC) system (Agilent) using an Inertsil ODS-3 3μ (150×4.6 mm) chromatography column from Varian. The isocratic mobile phase was the mixture of methanol and 50 mM potassium phosphate buffer, pH 6.25, with ratio of 60:40 (v/v) and the flow rate was 1 ml/min. The nornicotine peak, as determined by comparison with authentic non-labeled nornicotine, was collected and subjected to 2900 tri-carb Liquid ScintlDation Counter (LSC) (Perkin Elmer) for quantification. The activity of nicotine demethylase is calculated based on the production of ^14C labeled nornicotine over 1 hour incubation.

[2] = biological target: T2, nicotine demethylase activity in the transformed yeast cells (Nicotiana tabacum, UniProt Q38Q87); experiment: In vivo enzyme assay: feeding transformed yeast culture with 14C labeled nicotine; format: cell-based; settings: WAT11 yeast, galactose-induced culture, 55 μM 14C nicotine, 6 hours
T2 construct: expressed in transfected cells; host or cells: Saccharomyces cerevisiae WAT11 transformed with pYeDP60-p450 cDNA plasmid, galactose-induced culture
T2 sequence (Q38Q87 with tags, fused parts or gaps): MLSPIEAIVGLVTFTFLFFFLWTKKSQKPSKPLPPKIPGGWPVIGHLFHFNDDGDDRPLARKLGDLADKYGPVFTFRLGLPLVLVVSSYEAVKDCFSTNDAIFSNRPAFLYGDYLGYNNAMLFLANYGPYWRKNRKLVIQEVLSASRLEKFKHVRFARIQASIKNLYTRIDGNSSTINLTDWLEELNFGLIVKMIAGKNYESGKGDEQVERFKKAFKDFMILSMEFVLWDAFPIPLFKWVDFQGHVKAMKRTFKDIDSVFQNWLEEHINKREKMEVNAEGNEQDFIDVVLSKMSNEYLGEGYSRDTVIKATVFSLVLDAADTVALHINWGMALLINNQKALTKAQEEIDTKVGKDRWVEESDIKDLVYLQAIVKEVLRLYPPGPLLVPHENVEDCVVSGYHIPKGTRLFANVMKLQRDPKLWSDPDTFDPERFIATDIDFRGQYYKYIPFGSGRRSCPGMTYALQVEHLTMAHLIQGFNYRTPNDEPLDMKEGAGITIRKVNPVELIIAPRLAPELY
Method: Single yeast colonies were used to inoculate 30 mL SGI media (5 g/L bactocasamino acids, 6.7 g/L yeast nitrogen base without amino acids, 20 g/L glucose, 40 mg/L DL-tryptophan) and grown at 30° C. for about 24 hours. An aliquot of this culture was diluted 1:50 into 1000 mL of YPGE media (10 g/L yeast extract, 20 g/L bacto peptone, 5 g/L glucose, 30 ml/L ethanol) and grown until glucose was completely consumed as indicated by the colorimetric change of a Diastix urinalysis reagent strip (Bayer, Elkhart, Ind.). Induction of cloned P450 was initiated by adding DL-galactose to a final concentration of 2%. The cultures were grown for an additional 20 hours before used for in vivo activity assay or for microsome preparation.
WAT11 yeast cells expressing pYeDP60-CYP71D20 (a p450 catalyzing the hydroxylation of 5-epi-aristolochene and 1-deoxycapsidiol in Nicotiana tabacum) were used as control for the p450 expression and enzyme activity assays.
The nicotine demethylase activity in the transformed yeast cells were assayed by feeding of yeast culture with DL-Nicotine (Pyrrolidine-2-^14C). ^14C labeled nicotine (54 mCi/mmol) was added to 75 μl of the galactose-induced culture for a final concentration of 55 μM. […] After spinning, 20 μl of the methanol extract was separated with an rp-HPLC and the nornicotine fraction was quantitated by LSC.

`CN(C)CCCN1c2ccccc2Sc2ccc(Cl)cc21` [Chlorpromazine, reference compound] was tested, and the “effect on nicotine demethylase activity of D121-AA8 microsomes” value ([1]; Chlorpromazine 1 mM, incubated for 1 hour) was “decreased significantly”.

B1: Control (CYP71D20): a p450 catalyzing the hydroxylation of 5-epi-aristolochene and 1-deoxycapsidiol in Nicotiana tabacum, used as control (protein, UniProt Q94FM7 1-504, looked up)
5-epiaristolochene …: MQFFSLVSIFLFLSFLFLLRKWKNSNSQSKKLPPGPWKIPILGSMLHMIGGEPHHVLRDLAKKYGPLMHLQLGEISAVVVTSRDMAKEVLKTHDVVFASRPKIVAMDIICYNQSDIAFSPYGDHWRQMRKICVMELLNAKNVRSFSSIRRDEVVRLIDSIRSDSSSGELVNFTQRIIWFASSMTCRSAFGQVLKGQDIFAKKIREVIGLAEGFDVVDIFPTYKFLHVLSGMKRKLLNAHLKVDAIVEDVINEHKKNLAAGKSNGALGGEDLIDVLLRLMNDTSLQFPITNDNIKAVIVDMFAAGTETSSTTTVWAMAEMMKNPSVFTKAQAEVREAFRDKVSFDENDVEELKYLKLVIKETLRLHPPSPLLVPRECREDTDINGYTIPAKTKVMVNVWALGRDPKYWDDAESFKPERFEQCSVDFFGNNFEFLPFGGGRRICPGMSFGLANLYLPLAQLLYHFDWKLPTGIMPRDLDLTELSGITIARKGGLYLNATPYQPSRE
B1 was tested, and the “conversion of nicotine to nornicotine in yeast culture” value [2] was “did not convert nicotine to nornicotine”, the “nornicotine produced from the demethylation of nicotine (HPLC and LSC)” value [1] was “did not show any nornicotine conversion formation” and the “Demethylase activity, Microsomes + 100 μM cytochrome C” value ([1]; yeast microsomes with 100 μM oxidized cytochrome c, n = 3) was “Not Detected”. The “Demethylase activity, Microsomes + 1 mM chlorpromazine” value ([1]; yeast microsomes with 1 mM chlorpromazine, n = 3) was “Not Detected” and the “Demethylase activity, Microsomes” value ([1]; yeast microsomes, 6 mM NADPH, 55 μM 14C labeled nicotine, 25° C., 1 hour, n = 12) was “Not Detected”.

B2: D208-AD9: test p450 from a full-length tobacco clone, expressed in yeast (protein, listed as Nicotiana tabacum)
chain: MLSPIEAIVGLVTFTFLFFFLWTKKSQKPSKPLPPKIPGGWPVIGHLFHFNDDGDDRPLARKLGDLADKYGPVFTFRLGLPLVLVVSSYEAVKDCFSTNDAIFSNRPAFLYGDYLGYNNAMLFLANYGPYWRKNRKLVIQEVLSASRLEKFKHVRFARIQASMKNLYTRIDGNSSTINLTDWLEELNFGLIVKMIAGKNYESGKGDEQVERFKKAFKDFMILSMEFVLWDAFPIPLFKWVDFQGHVKAMKRTFKDIDSVFQNWLEEHINKREKMEVNAEGNEQDFIDVVLSKMSNEYLGEGYSRDTVIEATVFSLVLDAADTVALHINWGMALLINNQKALTKAQEEIDTKVCKDRWVEESDIKDLVYLQAIVKEVLRLYPPGPLLVPHENVEDCVVSGYHIPKGTRLFANVMKLQRDPKLWSDPDTFDPERFIATDIDFRGQYYKYIPFGPGRRSCPGMTYALQVEHLTMAHLIQGFNYRTPNDEPLDMKEGAGITIRKVNPVELIIAPRLAPELY
With B2 the “nornicotine produced from the demethylation of nicotine (HPLC and LSC)” value [1] was “did not show any nornicotine conversion formation”.
